Data reported in article PMC4788435 (2016).

B1: human NEK8-GFP wild type [human] / Flag-ANKS6 [not stated] (parent complex)
chain 1: MEKYERIRVVGRGAFGIVHLCLRKADQKLVIIKQIPVEQMTKEERQAAQNECQVLKLLNHPNVIEYYENFLEDKALMIAMEYAPGGTLAEFIQKRCNSLLEEETILHFFVQILLALHHVHTHLILHRDLKTQNILLDKHRMVVKIGDFGISKILSSKSKAYTVVGTPCYISPELCEGKPYNQKSDIWALGCVLYELASLKRAFEAANLPALVLKIMSGTFAPISDRYSPELRQLVLSLLSLEPAQRPPLSHIMAQPLCIRALLNLHTDVGSVRMRRAEKSVAPSNTGSRTTSVRCRGIPRGPVRPAIPPPLSSVYAWGGGLGTPLRLPMLNTEVVQVAAGRTQKAGVTRSGRLILWEAPPLGAGGGSLLPGAVEQPQPQFISRFLEGQSGVTIKHVACGDFFTACLTDRGIIMTFGSGSNGCLGHGSLTDISQPTIVEALLGYEMVQVACGASHVLALSTERELFAWGRGDSGRLGLGTRESHSCPQQVPMPPGQEAQRVVCGIDSSMILTVPGQALACGSNRFNKLGLDHLSLGEEPVPHQQVEEALSFTLLGSAPLDQEPLLSIDLGTAHSAAVTASGDCYTFGSNQHGQLGTNTRRGSRAPCKVQGLEGIKMAMVACGDAFTVAIGAESEVYSWGKGARGRLGRRDEDAGLPRPVQLDETHPYTVTSVSCCHGNTLLAVRSVTDEPVPP
chain 2: MGEGGLPPAFQLLLRACDQGDTETARRLLEPGAAEPAERGAEPEAGAEPAGAEVAGPGAAAAGAVGAPVPVDCSDEAGNTALQFAAAGGHEPLVRFLLRRGASVNSRNHYGWSALMQAARFGHVSVAHLLLDHGADVNAQNRLGASVLTVASRGGHLGVVKLLLEAGAFVDHHHPSGEQLGLGGSRDEPLDITALMAAIQHGHEAVVRLLMEWGADPNHAARTVGWSPLMLAALTGRLGVAQQLVEKGANPDHLSVLEKTAFEVALDCKHRDLVDYLDPLTTVRPKTDEEKRRPDIFHALKMGNFQLVKEIADEDPSHVNLVNGDGATPLMLAAVTGQLALVQLLVERHADVDKQDSVHGWTALMQATYHGNKEIVKYLLNQGADVTLRAKNGYTAFDLVMLLNDPDTELVRLLASVCMQVNKDKGRPSHQPPLPHSKVRQPWSIPVLPDDKGGLKSWWNRMSNRFRKLKLMQTLPRGLSSNQPLPFSDEPEPALDSTMRAAPQDKTSRSALPDAAPVTKDNGPGSTRGEKEDTLLTTMLRNGAPLTRLPSDKLKAVIPPFLPPSSFELWSSDRSRTRHNGKADPMKTALPQRASRGHPVGGGGTDTTPVRPVKFPSLPRSPASSANSGNFNHSPHSSGGSSGVGVSRHGGELLNRSGGSIDNVLSQIAAQRKKAAGLLEQKPSHRSSPVGPAPGSSPSELPASPAGGSAPVGKKLETSKRPPSGTSTTSKSTSPTLTPSPSPKGHTAESSVSSSSSHRQSKSSGGSSSGTITDEDELTGILKKLSLEKYQPIFEEQEVDMEAFLTLTDGDLKELGIKTDGSRQQILAAISELNAGKGRERQILQETIHNFHSSFESSASNTRAPGNSPCA

Variants of: B1
Assay: co-immunoprecipitation (anti-GFP IP, western blot band quantification); HEK293T cell lysates co-expressing NEK8-GFP and Flag-ANKS6; parent: 1; read off a plot

Row | ratio to parent | Variant
1 | ~0.95 | chain 1 R602W
2 | ~0.42 | chain 1 T87A
3 | ~0.97 | chain 1 G580S
4 | ~1 | chain 1 H425Y
